Assay results reported in publication PMC12915166 (2025).
Each block holds one binder with its values, some of them ahead of it.

What was measured:
[1] = target: T1, HA-2 (HA-2V allele), encoded by MYO1G peptide on HLA-A*02:01 (human)
T1 peptide: YIGEVLVSV

[2] = target: T2, HA-1 (HA-1H allele), encoded by ARHGAP45 peptide on HLA-A*02:06 (human); assay: activation reporter or marker
T2 peptide: VLHDDLLEA

- EC50 of peptide [1]: 0.7 nM
B1: anti-HA-2V TCR clone 7 (TCR)
alpha TRAV21 TRAJ42 CDR3: AVRSGYGGSQGNL
beta TRBV7-8 TRBJ2-5 CDR3: ASSLAGGSLQETQY

- binding result [2]: recognises
B2: anti-HA-1H TCR clone 7 (TCR)
alpha TRAV3 TRAJ40 CDR3: AVRAPTSGTYKYI
beta TRBV7-9 TRBJ2-1 CDR3: ASSLVSGNEQF

- EC50 of peptide [1]: 21 nM
B3: anti-HA-2V TCR clone 6 (TCR)
alpha TRAV38-2DV8 TRAJ34 CDR3: AYRRFYNTDKLI
beta TRBV19 TRBJ1-1 CDR3: ASRSAGYAEAF
